From patent US20240117018A1

Legend:
Test in all cases: cell-based or functional assay
[1] = molecular target: HIV-1 Env of pseudovirus 191955_A11 (HIV-1)
[2] = molecular target: HIV-1 Env of pseudovirus 3016.v5.c45 (HIV-1)
[3] = molecular target: HIV-1 Env of pseudovirus 3103.v3.c10 (HIV-1)
[4] = molecular target: HIV-1 Env of pseudovirus 620345.c01 (HIV-1)
[5] = molecular target: HIV-1 Env of pseudovirus 62357_14_D3_4589 (HIV-1)
[6] = molecular target: HIV-1 Env of pseudovirus 6952.v1.c20 (HIV-1)
[7] = molecular target: HIV-1 Env of pseudovirus AC10.0.29 (HIV-1)
[8] = molecular target: HIV-1 Env of pseudovirus BJOX028000.10.3 (HIV-1)
[9] = molecular target: HIV-1 Env of pseudovirus CAP210.2.00.E8 (HIV-1)
[10] = molecular target: HIV-1 Env of pseudovirus CNE20 (HIV-1)
[11] = molecular target: HIV-1 Env of pseudovirus Ce1086_B2 (HIV-1)
[12] = molecular target: HIV-1 Env of pseudovirus Ce1172_H1 (HIV-1)
[13] = molecular target: HIV-1 Env of pseudovirus Du172.17 (HIV-1)
[14] = molecular target: HIV-1 Env of pseudovirus Du422.1 (HIV-1)
[15] = molecular target: HIV-1 Env of pseudovirus PVO.4 (HIV-1)
[16] = molecular target: HIV-1 Env of pseudovirus Q259.d2.17 (HIV-1)
[17] = molecular target: HIV-1 Env of pseudovirus R1166.c01 (HIV-1)
[18] = molecular target: HIV-1 Env of pseudovirus T250-4 (HIV-1)
[19] = molecular target: HIV-1 Env of pseudovirus X1254_c3 (HIV-1)
[20] = molecular target: HIV-1 Env of pseudovirus X2088_c9 (HIV-1)
[21] = molecular target: MuLV envelope (negative control pseudovirus) (MuLV)

Substance: N49P7-54TY (antibody)
- IC50 (Titer in TZM.bl cells) [1]: 3.04 µg/mL
- IC80 (Titer in TZM.bl cells) [1]: > 25 µg/mL
- MPI [1]: 72
- IC50 (Titer in TZM.bl cells) [2]: 0.206 µg/mL
- IC80 (Titer in TZM.bl cells) [2]: 1.91 µg/mL
- MPI [2]: 92
- IC50 (Titer in TZM.bl cells) [3]: 0.151 µg/mL
- IC80 (Titer in TZM.bl cells) [3]: 0.55 µg/mL
- MPI [3]: 100
- IC50 (Titer in TZM.bl cells) [4]: > 25 µg/mL
- IC80 (Titer in TZM.bl cells) [4]: > 25 µg/mL
- MPI [4]: 0
- IC50 (Titer in TZM.bl cells) [5]: 0.055 µg/mL
- IC80 (Titer in TZM.bl cells) [5]: 0.192 µg/mL
- MPI [5]: 100
- IC50 (Titer in TZM.bl cells) [6]: > 25 µg/mL
- IC80 (Titer in TZM.bl cells) [6]: > 25 µg/mL
- MPI [6]: 20
- IC50 (Titer in TZM.bl cells) [7]: > 25 µg/mL
- IC80 (Titer in TZM.bl cells) [7]: > 25 µg/mL
- MPI [7]: 40
- IC50 (Titer in TZM.bl cells) [8]: 0.009 µg/mL
- IC80 (Titer in TZM.bl cells) [8]: 0.044 µg/mL
- MPI [8]: 100
- IC50 (Titer in TZM.bl cells) [9]: 0.691 µg/mL
- IC80 (Titer in TZM.bl cells) [9]: 3.33 µg/mL
- MPI [9]: 97
- IC50 (Titer in TZM.bl cells) [10]: 0.046 µg/mL
- IC80 (Titer in TZM.bl cells) [10]: 0.16 µg/mL
- MPI [10]: 100
- IC50 (Titer in TZM.bl cells) [11]: 0.067 µg/mL
- IC80 (Titer in TZM.bl cells) [11]: 0.339 µg/mL
- MPI [11]: 100
- IC50 (Titer in TZM.bl cells) [12]: > 25 µg/mL
- IC80 (Titer in TZM.bl cells) [12]: > 25 µg/mL
- MPI [12]: 23
- IC50 (Titer in TZM.bl cells) [13]: 0.124 µg/mL
- IC80 (Titer in TZM.bl cells) [13]: 0.529 µg/mL
- MPI [13]: 100
- IC50 (Titer in TZM.bl cells) [14]: 0.402 µg/mL
- IC80 (Titer in TZM.bl cells) [14]: 2.02 µg/mL
- MPI [14]: 96
- IC50 (Titer in TZM.bl cells) [15]: 0.079 µg/mL
- IC80 (Titer in TZM.bl cells) [15]: 0.314 µg/mL
- MPI [15]: 100
- IC50 (Titer in TZM.bl cells) [16]: 0.132 µg/mL
- IC80 (Titer in TZM.bl cells) [16]: 1.13 µg/mL
- MPI [16]: 95
- IC50 (Titer in TZM.bl cells) [17]: 0.131 µg/mL
- IC80 (Titer in TZM.bl cells) [17]: 0.47 µg/mL
- MPI [17]: 100
- IC50 (Titer in TZM.bl cells) [18]: 1.02 µg/mL
- IC80 (Titer in TZM.bl cells) [18]: 19.6 µg/mL
- MPI [18]: 83
- IC50 (Titer in TZM.bl cells) [19]: 0.145 µg/mL
- IC80 (Titer in TZM.bl cells) [19]: 0.599 µg/mL
- MPI [19]: 100
- IC50 (Titer in TZM.bl cells) [20]: 0.172 µg/mL
- IC80 (Titer in TZM.bl cells) [20]: 0.572 µg/mL
- MPI [20]: 100
- IC50 (Titer in TZM.bl cells) [21]: > 25 µg/mL
- IC80 (Titer in TZM.bl cells) [21]: > 25 µg/mL
- MPI [21]: 0
